Molecular target: T1, p75 neurotrophin receptor on rat embryonic motor neurons (rat, UniProt P07174 30-425)
T1 sequence (looked up): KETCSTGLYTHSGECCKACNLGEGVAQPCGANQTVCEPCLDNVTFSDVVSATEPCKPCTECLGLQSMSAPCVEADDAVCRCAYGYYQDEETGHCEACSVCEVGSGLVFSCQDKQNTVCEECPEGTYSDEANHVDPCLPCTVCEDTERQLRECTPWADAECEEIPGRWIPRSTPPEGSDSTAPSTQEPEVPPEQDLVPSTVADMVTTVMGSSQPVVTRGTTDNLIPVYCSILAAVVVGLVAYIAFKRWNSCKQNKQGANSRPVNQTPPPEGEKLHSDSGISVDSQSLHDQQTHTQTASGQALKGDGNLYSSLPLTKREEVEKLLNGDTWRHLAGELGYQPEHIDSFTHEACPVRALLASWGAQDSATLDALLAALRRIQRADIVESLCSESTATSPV
Test: cell-based or functional assay

B1: peroxynitrite-treated NGF (mouse NGF nitrated by peroxynitrite) (ligand)
chain: SSTHPVFHMGEFSVCDSVSVWVGDKTTATDIKGKEVTVLAEVNINNSVFRQYFFETKCRASNPVESGCRGIDSKHWNSYCTTTHTFVKALTTDEKQAAWRFIRIDTACVCVLSRKATR
modifications: nitro groups on Tyr52 and Trp99 (the species identified by mass spectrometry); up to five nitro groups and methionine oxidation suggested
fold increase of apoptotic activity against native NGF: 10000 fold
